B1: AB-009812 (antibody, mouse IgG2a, V domains shown)
VH: QVQLQQWGAGLLKPSETLSLTCAVYGGSFSDYYWSWIRQPPGKGLEWIGEVNHSGSINYNNYNPSLKSRVTISVDPSKNQFSLKLTSVTAADTAVYYCAKPLRPHCTNGVCYSGDAFDIWGQGTMVTVAS
VL: SYVLTQPPSVSVAPGQTARITCGGNNIGSKNVHWYQQKPGQAPVLVVYDDSDRPSGIPEQFSGSNSGNTATLTISRVEAGDEADYYCQVWDSSSDHLVFGGGTKLTVL
B2: AB-009816 (antibody, mouse IgG2a, V domains shown)
VH: B1 VH with S54R, P76A
VL: B1 VL
B3: AB-009813 (antibody, mouse IgG2a, V domains shown)
VH: B1 VH with S54A
VL: B1 VL
B4: AB-009815 (antibody, mouse IgG2a, V domains shown)
VH: B1 VH with S54R, P76T
VL: B1 VL
B5: AB-010699 (mIgG2a format) (antibody, V domains shown)
VH: B1 VH with D31G, V51I, S54R, P76T, T86S, T107I
VL: B1 VL with S29Y, Q60R, S92H, L97V
notes: Tested with mouse IgG2a constant regions (mIgG2a format)

One may read the Kd as the free concentration of one partner at which half of the binding sites on the other are occupied at equilibrium, for simple one-to-one binding. The koff is the rate constant with which the complex falls apart. As usually defined, the kon is a measure of how fast the partners come together. Lower therefore signals slow association.

Where a chain is given by its changes, count along the chain named.

For one test, the target named is T1, Human EphA2 (ephrin receptor A2) (human, UniProt P29317 24-976).
T1 construct: Endogenous protein in frozen human tumor tissue and tumor adjacent tissue, not a recombinant construct
T1 sequence (P29317 24-976 limits assumed): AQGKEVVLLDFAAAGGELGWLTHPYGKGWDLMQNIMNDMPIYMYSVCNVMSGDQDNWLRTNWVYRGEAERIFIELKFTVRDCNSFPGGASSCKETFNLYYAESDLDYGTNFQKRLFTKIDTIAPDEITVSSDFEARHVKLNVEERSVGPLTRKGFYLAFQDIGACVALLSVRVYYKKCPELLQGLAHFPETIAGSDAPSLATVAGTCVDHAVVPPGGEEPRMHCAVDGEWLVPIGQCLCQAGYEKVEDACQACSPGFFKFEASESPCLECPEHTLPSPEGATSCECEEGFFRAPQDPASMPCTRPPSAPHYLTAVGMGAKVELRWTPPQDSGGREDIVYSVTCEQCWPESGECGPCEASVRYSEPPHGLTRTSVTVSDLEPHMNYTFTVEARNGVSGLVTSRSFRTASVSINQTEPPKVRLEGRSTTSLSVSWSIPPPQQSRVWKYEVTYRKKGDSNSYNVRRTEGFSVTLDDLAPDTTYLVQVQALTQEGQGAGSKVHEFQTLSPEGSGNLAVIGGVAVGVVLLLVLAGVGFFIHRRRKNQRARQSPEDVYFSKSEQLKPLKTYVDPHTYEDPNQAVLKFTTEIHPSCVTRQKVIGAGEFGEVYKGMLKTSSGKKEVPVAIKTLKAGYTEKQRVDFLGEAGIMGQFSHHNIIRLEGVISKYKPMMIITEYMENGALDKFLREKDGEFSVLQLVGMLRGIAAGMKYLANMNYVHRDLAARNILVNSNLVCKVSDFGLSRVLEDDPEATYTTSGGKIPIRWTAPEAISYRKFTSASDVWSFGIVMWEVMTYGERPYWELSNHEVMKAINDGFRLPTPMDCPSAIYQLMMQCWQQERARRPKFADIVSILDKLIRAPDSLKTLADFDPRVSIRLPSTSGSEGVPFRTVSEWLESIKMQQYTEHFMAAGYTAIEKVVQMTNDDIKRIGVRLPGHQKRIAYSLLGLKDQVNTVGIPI
Put plainly: IHC/IF score on frozen human tumor tissue, ANC.
Regarding B1, the IHC score amounted to 2.
Same read-out and setting: the result for B2 reads 2.
B3: the IHC score was 2.
The same measure, in the same setting: the result for B4 reads 2.

The next test has as its target T1, Human EphA2 (ephrin receptor A2). Nature of the test: IHC/IF score on frozen human tumor tissue, UCEC-clear cell.
Turning to B1, the IHC score came to 1.
Take B2: the IHC score is 2.
Same read-out and setting: for B3 the value was 2; for B4, 2.

Another test has the same target. Put plainly: IHC/IF score on frozen human tumor tissue, NSCLC-Adeno.
B1 returned an IHC score of 2.
B2 had an IHC score of 2.
Molecule B3 yielded an IHC score of 2.
Same read-out and setting: for B4 the value was 2.

Another test has the same target. Nature of the test: IHC/IF score on frozen human tumor tissue, HNC.
As to B1, the IHC score was 2.
Still for that read-out and setting: the result for B2 reads 2; that for B3, 2.
The same measure, in the same setting: the result for B4 reads 2.

Another test shares this target. Put plainly: IHC/IF score on frozen human tumor tissue, RCC-clear cell.
Molecule B1 returned an IHC score of 1.
On to B2, for which the IHC score turned out to be 1.
Same read-out and setting: for B3 the value was 1; for B4, 1.

A further test has the same target. Put plainly: IHC/IF score on frozen human tumor tissue, NSCLC-SQ.
Molecule B1 returned an IHC score of 1.
The same measure, in the same setting: the result for B2 reads 1; that for B3, 1.
For the molecule B4, the IHC score is 1.

For another test the target is unchanged. Put plainly: IHC/IF score on frozen human tumor tissue, PANC.
The molecule B1 showed an IHC score of 1.
The same measure, in the same setting: the result for B2 reads 1.
Same read-out and setting: for B3 the value was 1; for B4, 1.

For another test the target is unchanged. Put plainly: IHC/IF score on frozen human tumor tissue, ESC.
In turn, B1 returned an IHC score of 2.
On the same count and under the same terms, the result for B2 reads 2; that for B3, 2; that for B4, 2.

For another test the target is unchanged. Nature of the test: IHC/IF score on frozen human tumor tissue, GAC.
B1 returned an IHC score of 2.
For the molecule B2, the IHC score amounted to 2.
In turn, B3 displayed an IHC score of 2.
Same read-out and setting: the result for B4 reads 2.

The target is the same in a further test. Nature of the test: IHC/IF score on frozen human tumor tissue, OVA.
B1 showed an IHC score of 2.
B2 returned an IHC score of 2.
Same read-out and setting: the result for B3 reads 2; that for B4, 2.

The target is the same in a further test. Put plainly: IHC/IF score on frozen human tumor tissue, TNBC.
Consider B1, for which the IHC score was found to be 1.
Regarding B2, the IHC score amounted to 1.
Same read-out and setting: for B3 the value was 1; for B4, 1.

For a further test the target is unchanged. Put plainly: IHC/IF score on frozen human tumor tissue, STS.
In turn, B1 displayed an IHC score of 2.
On the same count and under the same terms, for B2 the value was 2; for B3, 2; for B4, 2.

For a further test the target is unchanged. Put plainly: IHC/IF score on frozen human tumor tissue, UCEC-papillary.
Molecule B1 had an IHC score of 2.
The same measure, in the same setting: the result for B2 reads 2; that for B3, 2.
B4: the IHC score was determined as 2.

Another test has the same target. Nature of the test: IHC/IF score on frozen human tumor tissue, CRC.
Take B1: the IHC score turned out to be 1.
In turn, B2 came in with an IHC score of 1.
B3 came in with an IHC score of 1.
On the same count and under the same terms, the result for B4 reads 1.

Another test shares this target. Nature of the test: IHC/IF score on frozen human tumor tissue, PROC.
Regarding B1, the IHC score came to 1.
Same read-out and setting: for B2 the value was 1; for B3, 1.
In the case of B4, the IHC score is 1.

For another test, the target named is T2, C-terminally His-tagged hEphA2-FN2 (Thr437-Asn534+His tag) (human, UniProt P29317 437-534).
T2 construct: SPR analyte; also called FN2 domain of hEphA2
T2 sequence (P29317 437-534 limits assumed): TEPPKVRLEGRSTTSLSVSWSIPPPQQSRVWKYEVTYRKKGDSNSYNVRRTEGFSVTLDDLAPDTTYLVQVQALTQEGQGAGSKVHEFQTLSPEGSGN
Nature of the test: SPR Biacore T200, 25 C, mIgG2a captured by anti-mouse Fc, FN2-His as analyte, steady-state fit, monovalent. How it is done: Binding of antibodies to the FN2 domain of hEphA2 was measured using the Biacore® T200 SPR system at 25° C. using HBS-EP+ buffer (0.01 M HEPES pH 7.4, 0.15 M NaCl, 3 mM EDTA, 0.005% v/v Surfactant P20). Antibodies in mIgG2a format were captured at levels between 475-715 RU via an anti-mouse Fc antibody immobilized to a CM5 chip. Binding was assessed using a titration of C-terminally His-tagged hEphA2-FN2 (Thr437-Asn534+His tag) associated for 30 s or 75 s at 30 uL/min. Data was double-reference subtracted using both a surface without captured antibody and from injections of HBS-EP+ buffer. The equilibrium response was measured at 4 seconds before the end of association with a window of 5 seconds and fit using the Biacore T200 Evaluation Software 3.1 with the Steady State Affinity Model.
(In general: Surface plasmon resonance follows binding to a sensor surface in real time, without labels.)
In turn, B5 registered a Kd of 0.0189 µM.

A further test deals with T1, Human EphA2 (ephrin receptor A2). Put plainly: IHC/IF score on frozen human tumor tissue, Her2+ BRC.
B1: the IHC score was determined as 2.
On the same count and under the same terms, for B2 the value was 2; for B3, 1; for B4, 2.

The target of a further test is T2, C-terminally His-tagged hEphA2-FN2 …. Put plainly: SPR Biacore T200, 25 C, mIgG2a as ligand, FN2-His as analyte, 1:1 Langmuir. How it is done: Binding of EphA2 antibodies to the FN2 domain of hEphA2 was measured using the Biacore® T200 SPR system. Biacore® assays were conducted at 25° C. using HBS-EP+ buffer (0.01 M HEPES pH 7.4, 0.15 M NaCl, 3 mM EDTA, 0.005% v/v Surfactant P20) using the FN2 domain as the analyte with the antibodies in mIgG2a format as the immobilized ligand. Data was analyzed using 1:1 Langmuir binding model and steady-state model in Biacore Evaluation software.
C-terminally His-tagged human EphA2 FN2 domain (Thr437-Asn534+His tag) was used as the analyte. The analyte was associated for 120 seconds and dissociated for 100 seconds or 300 seconds at 30 uL/min.
B5 displayed a Kd of 0.019 µM, a koff of 0.075 s⁻¹ and a kon of 3.9e+06 M⁻¹ s⁻¹.

The target in another test is T1, Human EphA2 (ephrin receptor A2). Put plainly: IHC/IF score on frozen human tumor tissue, MELA.
Regarding B1, the IHC score came out at 2.
Same read-out and setting: for B2 the value was 2; for B3, 2.
Same read-out and setting: for B4 the value was 2.

For a further test the target is unchanged. Put plainly: IHC/IF score on frozen human tumor tissue, URO.
B1 yielded an IHC score of 1.
On the same count and under the same terms, for B2 the value was 1; for B3, 1; for B4, 1.

A further test has the same target. Nature of the test: IHC/IF score on frozen human tumor tissue, UCEC-endometriod.
Molecule B1 gave an IHC score of 1.
Same read-out and setting: for B2 the value was 1.
On the same count and under the same terms, the result for B3 reads 1.
B4 registered an IHC score of 1.

For another test the target is unchanged. Put plainly: IHC/IF score on frozen human tumor tissue, ER+ BRC.
B1: the IHC score was 1.
B2 displayed an IHC score of 1.
On the same count and under the same terms, for B3 the value was 1; for B4, 1.

For another test the target is unchanged. Nature of the test: IHC/IF score on frozen human tumor tissue, RCC-papillary.
B1 had an IHC score of 1.
On the same count and under the same terms, for B2 the value was 1.
Same read-out and setting: the result for B3 reads 1; that for B4, 1.

The values above are taken from patent US20250051464A1 (IMMUNOME, published 2025).
